From doi:10.1101/2022.04.14.488403 (bioRxiv, 2022)
Values belong to the molecule of their own block, whether it stands above or below them.

Assays:
K5:I-E^k = assay: biomembrane force probe
mouse CD3γε ECD = mouse CD3γε ECD (Mus musculus (Mouse)., UniProt P11942;P22646, biotin (BirA) on the C-terminal biotinylation sequence); assay: micropipette adhesion frequency
human CD3γε ECD = human CD3γε ECD (human, UniProt P09693;P07766, biotin (BirA) on the C-terminal biotinylation sequence); assay: biomembrane force probe
Chain of human CD3γε ECD (P09693 23-116, one chain of several): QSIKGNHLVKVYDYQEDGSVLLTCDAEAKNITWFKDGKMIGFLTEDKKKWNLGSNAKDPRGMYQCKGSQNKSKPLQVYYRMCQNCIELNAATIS

Chain of mouse CD3γε ECD (P11942 23-116, chain 1 of 2): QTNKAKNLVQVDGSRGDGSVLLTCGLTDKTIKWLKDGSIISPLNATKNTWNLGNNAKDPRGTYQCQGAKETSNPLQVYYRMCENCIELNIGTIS
Chain of mouse CD3γε ECD (P22646 23-108, chain 2 of 2): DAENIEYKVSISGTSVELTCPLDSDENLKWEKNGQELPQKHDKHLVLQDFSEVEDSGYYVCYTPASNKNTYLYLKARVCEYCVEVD

- peak bond lifetime (at 15 pN) (K5:I-E^k): 1.6 s
Molecule: 2B4 TCR, wild type, fully assembled on the surface of T hybridoma cells (from UniProt P01849 1-136)

- binding result (mouse CD3γε ECD): binds
B1: 2C11 full-length mAb (anti-CD3ε, clone 145-2C11) (antibody, V domains shown)
VH: EVQLVESGGGLVQPGKSLKLSCEASGFTFSGYGMHWVRQAPGRGLESVAYITSSSINIKYADAVKGRFTVSRDNAKNLLFLQMNILKSEDTAMYYCARFDWDKNYWGQGTMVTVSS
VL: DIQMTQSPSSLPASLGDRVTINCQASQDISNYLNWYQQKPGKAPKLLIYYTNKLADGVPSRFSGSGSGRDSSFTISSLESEDIGSYYCQQYYNYPWTFGPGTKLEIK

- binding result (human CD3γε ECD): binds
B2: human CD3δε ECD (complex)
chain 1: FKIPIEELEDRVFVNCNTSITWVEGTVGTLLSDITRLDLGKRILDPRGIYRCNGTDIYKDKESTVQVHYRMCQSCVELDPATVA
chain 2: DGNEEMGGITQTPYKVSISGTTVILTCPQYPGSEILWQHNDKNIGGDEDDKNIGSDEDHLSLKEFSELEQSGYYVCYPRGSKPEDANFYLYLRARVCENCMEMD
modifications: biotin (BirA) on the C-terminal biotinylation sequence
